{"source": "paper PMC10786891", "about": "“Massively parallel profiling of RNA-targeting CRISPR-Cas13d”", "binders": {"B1": {"name": "target 1 insU 3' of 21,insA 3' of 7 (mixed)", "RNA 1": "CACCCGUGCAAAAAUGCAGGGGUCUAAAACUGAGCGGAUAACCUCUCUAUGG", "RNA 2": "GGGAAUGGAUCCACAUCUACGAAUUCGUACCUAUAGAGAGGUUAUCACGCUCACCGAGAUCGGAAGAGCACACGU"}, "B2": {"name": "target 1 insU 3' of 13,insA 3' of 7 (mixed)", "RNA 1": "B1 RNA 1", "RNA 2": "B1 RNA 2 with U32A, A33U, U34A, A35G, G36A, A37G, G38A, A39G, G40U"}, "B3": {"name": "target 1 U3G,U10A (mixed)", "RNA 1": "B1 RNA 1", "RNA 2": "GGGAAUGGAUCCACAUCUACGAAUUCGUACCAUAGAGAGGUAAUCCGCGCACCGAGAUCGGAAGAGCACACGU"}, "B4": {"name": "target 1 insA 3' of 17,insG 3' of 10 (mixed)", "RNA 1": "B1 RNA 1", "RNA 2": "B1 RNA 2 with U32A, A33U, U34A, A35G, G36A, A44G, U45A, C46U, A47C"}, "B5": {"name": "target 1 insA 3' of 7,insA 3' of 7 (mixed)", "RNA 1": "B1 RNA 1", "RNA 2": "GGGAAUGGAUCCACAUCUACGAAUUCGUACCAUAGAGAGGUUAUCAACGCUCACCGAGAUCGGAAGAGCACACGU"}, "B6": {"name": "target 1 U3G,A14C (mixed)", "RNA 1": "B1 RNA 1", "RNA 2": "B3 RNA 2 with A38C, A42U"}, "B7": {"name": "target 1 insU 3' of 15,insC 3' of 14 (mixed)", "RNA 1": "B1 RNA 1", "RNA 2": "B5 RNA 2 with A38U, G39A, G40C, U41G, U42G, A43U, C45A, A46U, A47C"}, "B8": {"name": "target 1 C6A,U8C (mixed)", "RNA 1": "B1 RNA 1", "RNA 2": "B3 RNA 2 with A42U, U44C, C46A, G49U"}, "B9": {"name": "target 1 del3,del14 (mixed)", "RNA 1": "B1 RNA 1", "RNA 2": "GGGAAUGGAUCCACAUCUACGAAUUCGUACCAUAGAGGGUUAUCCGCCACCGAGAUCGGAAGAGCACACGU"}, "B10": {"name": "target 1 U3G,A16G (mixed)", "RNA 1": "B1 RNA 1", "RNA 2": "B3 RNA 2 with A36G, A42U"}, "B11": {"name": "target 1 insU 3' of 12,insU 3' of 9 (mixed)", "RNA 1": "B1 RNA 1", "RNA 2": "B5 RNA 2 with A43U, U44A, C45U, A46U, A47C"}, "B12": {"name": "target 1 insC 3' of 11,insG 3' of 10 (mixed)", "RNA 1": "B1 RNA 1", "RNA 2": "B5 RNA 2 with U42C, A43U, U44G, C45A, A46U, A47C"}, "B13": {"name": "target 1 insG 3' of 22,insC 3' of 5 (mixed)", "RNA 1": "B1 RNA 1", "RNA 2": "B1 RNA 2 with C31G, U32C, A47C, C48G, G49C"}, "B14": {"name": "target 1 G5U,A9U (mixed)", "RNA 1": "B1 RNA 1", "RNA 2": "B3 RNA 2 with A42U, A43U, G47U, G49U"}, "B15": {"name": "target 1 insC 3' of 10,insG 3' of 10 (mixed)", "RNA 1": "B1 RNA 1", "RNA 2": "B5 RNA 2 with A43C, U44G, C45A, A46U, A47C"}, "B16": {"name": "target 1 insA 3' of 22,insU 3' of 18 (mixed)", "RNA 1": "B1 RNA 1", "RNA 2": "GGGAAUGGAUCCACAUCUACGAAUUCGUACACAUAUGAGAGGUUAUCCGCUCACCGAGAUCGGAAGAGCACACGU"}, "B17": {"name": "target 1 insG 3' of 11 (mixed)", "RNA 1": "B1 RNA 1", "RNA 2": "GGGAAUGGAUCCACAUCUACGAAUUCGUACCAUAGAGAGGUGUAUCCGCUCACCGAGAUCGGAAGAGCACACGU"}, "B18": {"name": "target 1 insA 3' of 3,insC 3' of 3 (mixed)", "RNA 1": "B1 RNA 1", "RNA 2": "B5 RNA 2 with A46C, A47G, G49U, C50A, U51C"}, "B19": {"name": "target 1 U3C,A9C (mixed)", "RNA 1": "B1 RNA 1", "RNA 2": "B3 RNA 2 with A42U, A43C, G49C"}, "B20": {"name": "target 1 complement block 4-10 (mixed)", "RNA 1": "B1 RNA 1", "RNA 2": "B3 RNA 2 with A43U, U44A, C45G, C46G, G47C, C48G, G49U"}, "B21": {"name": "target 1 insU 3' of 20,insG 3' of 6 (mixed)", "RNA 1": "B1 RNA 1", "RNA 2": "B1 RNA 2 with U32A, A33U, A47C, C48G"}, "B22": {"name": "target 1 U3G,A18U (mixed)", "RNA 1": "B1 RNA 1", "RNA 2": "B3 RNA 2 with A34U, A42U"}, "B23": {"name": "target 1 C6U,U11G (mixed)", "RNA 1": "B1 RNA 1", "RNA 2": "B3 RNA 2 with U41G, A42U, C46U, G49U"}, "B24": {"name": "target 1 insC 3' of 20,insG 3' of 2 (mixed)", "RNA 1": "B1 RNA 1", "RNA 2": "B1 RNA 2 with U32A, A33C, A47C, C48G, G49C, C50U, U51C, C52G"}, "B25": {"name": "target 1 C2A,A18G (mixed)", "RNA 1": "B1 RNA 1", "RNA 2": "B3 RNA 2 with A34G, A42U, G49U, C50A"}, "B26": {"name": "target 1 C6A,C7U (mixed)", "RNA 1": "B1 RNA 1", "RNA 2": "B3 RNA 2 with A42U, C45U, C46A, G49U"}, "B27": {"name": "target 1 insC 3' of 14,insG 3' of 11 (mixed)", "RNA 1": "B1 RNA 1", "RNA 2": "B5 RNA 2 with G39C, U41G, A43G, C45A, A46U, A47C"}, "B28": {"name": "target 1 C6U,C22U (mixed)", "RNA 1": "B1 RNA 1", "RNA 2": "B3 RNA 2 with C30U, A42U, C46U, G49U"}, "B29": {"name": "target 1 insC 3' of 11,insG 3' of 2 (mixed)", "RNA 1": "B1 RNA 1", "RNA 2": "GGGAAUGGAUCCACAUCUACGAAUUCGUACCAUAGAGAGGUCUAUCCGCUCGACCGAGAUCGGAAGAGCACACGU"}}, "note": "Substitutions are numbered along the chain they refer to. In names and notes the source's numbering stands.", "data": [{"target": "T1, EsCas13d, nuclease-dead (Eubacterium siraeum, UniProt B0MS50, R295A;H300A;R849A;H854A)", "T1 sequence": "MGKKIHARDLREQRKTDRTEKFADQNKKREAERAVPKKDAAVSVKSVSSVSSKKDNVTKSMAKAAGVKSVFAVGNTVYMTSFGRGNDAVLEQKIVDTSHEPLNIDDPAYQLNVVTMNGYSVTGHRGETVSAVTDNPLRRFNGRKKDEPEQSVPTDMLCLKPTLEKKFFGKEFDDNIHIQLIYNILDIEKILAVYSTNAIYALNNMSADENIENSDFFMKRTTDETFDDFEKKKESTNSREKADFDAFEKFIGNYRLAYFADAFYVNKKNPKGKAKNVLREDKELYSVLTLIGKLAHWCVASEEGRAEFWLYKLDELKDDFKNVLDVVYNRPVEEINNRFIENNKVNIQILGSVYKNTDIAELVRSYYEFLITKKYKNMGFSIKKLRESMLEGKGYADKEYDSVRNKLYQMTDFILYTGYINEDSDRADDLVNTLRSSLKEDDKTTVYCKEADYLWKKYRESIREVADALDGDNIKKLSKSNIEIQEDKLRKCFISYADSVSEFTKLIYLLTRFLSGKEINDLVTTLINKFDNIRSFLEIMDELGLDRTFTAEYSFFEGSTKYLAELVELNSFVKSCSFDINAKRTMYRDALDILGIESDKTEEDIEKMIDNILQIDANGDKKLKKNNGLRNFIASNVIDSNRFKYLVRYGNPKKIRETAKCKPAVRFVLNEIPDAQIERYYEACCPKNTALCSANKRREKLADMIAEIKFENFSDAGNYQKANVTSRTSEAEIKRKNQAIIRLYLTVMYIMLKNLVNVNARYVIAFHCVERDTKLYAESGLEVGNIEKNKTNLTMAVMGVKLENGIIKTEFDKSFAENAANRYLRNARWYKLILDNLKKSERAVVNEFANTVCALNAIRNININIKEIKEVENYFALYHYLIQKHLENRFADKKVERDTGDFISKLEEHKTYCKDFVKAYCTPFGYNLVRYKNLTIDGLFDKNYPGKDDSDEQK", "test": "crRNA (strand 1, pre-loaded); Mg2+; 40 mM Tris-HCl pH 7.5, 150 mM NaCl, 6 mM MgCl2, 1 mM DTT, 0.1% Tween-20, 0.2 mg/ml BSA; 25 C; 10 min per concentration, then washed", "conditions": "tags: His6-TwinStrep-SUMO cleaved; N-terminal SNAP kept (SNAP-Surface 488); label: 3' end held by stalled T7 RNA polymerase", "units": {"Kd": "nM"}, "values": [{"binder": "B1", "Kd": "20.3 ± 0.9"}, {"binder": "B2", "Kd": "13.6 ± 0.6"}, {"binder": "B3", "Kd": "17.2 ± 1.3"}, {"binder": "B4", "Kd": "43 ± 9"}, {"binder": "B5", "Kd": "7 ± 0.5"}, {"binder": "B6", "Kd": "28.6 ± 1.8"}, {"binder": "B7", "Kd": "43 ± 6"}, {"binder": "B8", "Kd": "10.7 ± 0.6"}, {"binder": "B9", "Kd": "44 ± 4"}, {"binder": "B10", "Kd": "27.1 ± 1.5"}, {"binder": "B11", "Kd": "29 ± 5"}, {"binder": "B12", "Kd": "23.4 ± 2.5"}, {"binder": "B13", "Kd": "67 ± 23"}, {"binder": "B14", "Kd": "97 ± 20"}, {"binder": "B15", "Kd": "13.6 ± 0.5"}, {"binder": "B16", "Kd": "47 ± 6"}, {"binder": "B17", "Kd": "33.3 ± 3.1"}, {"binder": "B18", "Kd": "62 ± 19"}, {"binder": "B19", "Kd": "28.4 ± 3"}, {"binder": "B20", "Kd": "13.4 ± 0.4"}, {"binder": "B21", "Kd": "16.3 ± 0.9"}, {"binder": "B22", "Kd": "20.5 ± 1.3"}, {"binder": "B23", "Kd": "16.2 ± 0.9"}, {"binder": "B24", "Kd": "11.6 ± 0.5"}, {"binder": "B25", "Kd": "64 ± 18"}, {"binder": "B26", "Kd": "7.1 ± 0.5"}, {"binder": "B27", "Kd": "57 ± 13"}, {"binder": "B28", "Kd": "14.8 ± 1.9"}, {"binder": "B29", "Kd": "42 ± 14"}]}]}
